According to patent publication US20250171542A1:

Target: Trop2 on MDA-MB-231 cell surface (UniProt P09758)
Assay: cell-based or functional assay

Trop2 on MDA-MB-231 cell surface, sequence (P09758 27-323 limits assumed): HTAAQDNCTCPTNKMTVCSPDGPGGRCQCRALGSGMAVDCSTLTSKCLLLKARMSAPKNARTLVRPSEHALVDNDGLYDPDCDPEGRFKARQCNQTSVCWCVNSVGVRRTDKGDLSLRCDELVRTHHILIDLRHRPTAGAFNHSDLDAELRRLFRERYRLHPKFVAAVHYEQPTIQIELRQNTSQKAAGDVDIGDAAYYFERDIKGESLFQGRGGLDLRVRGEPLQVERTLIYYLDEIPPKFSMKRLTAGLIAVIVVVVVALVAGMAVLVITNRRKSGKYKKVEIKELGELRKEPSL

Internalization (%), FACS, 0.25 µg/ml, 2 h: 35.7% | Internalization (%), FACS, 0.25 µg/ml, 4 h: 45.1% | Internalization (%), FACS, 0.5 µg/ml, 2 h: 38% | Internalization (%), FACS, 0.5 µg/ml, 4 h: 45.6% | Internalization (%), FACS, 1 µg/ml, 2 h: 36.5% | Internalization (%), FACS, 1 µg/ml, 4 h: 44.5% | Internalization (%), FACS, 2 µg/ml, 2 h: 36.2% | Internalization (%), FACS, 2 µg/ml, 4 h: 46.1%
B1: Trodelvy (Sacituzumab govitecan-hziy, Immunomedics) (antibody, INN chains, looked up, V domains shown)
VH: QVQLQQSGSELKKPGASVKVSCKASGYTFTNYGMNWVKQAPGQGLKWMGWINTYTGEPTYTDDFKGRFAFSLDTSVSTAYLQISSLKADDTAVYFCARGGFGSSYWYFDVWGQGSLVTVSS
VL: DIQLTQSPSSLSASVGDRVSITCKASQDVSIAVAWYQQKPGKAPKLLIYSASYRYTGVPDRFSGSGSGTDFTLTISSLQPEDFAVYYCQQHYITPLTFGAGTKVEIKR
modifications: govitecan (SN-38) payload
